Results taken from patent publication US20170369590A1 (published 2017).
Changes are numbered by the printed parent chain.

B1: HuMab 084 (antibody, V domains shown)
VH: QVQLVQSGAEVKKPGSSVKVSCKASGGTFRTYAINWVRQAPGQGLEWMGRINTVLGIVNHAQKFQGRVTITADKSTNTAYMELNSLRSEDTAVYYCAREKGVDYYYGIEVWGQGTTVTVSS
VL: DIQMTQSPSSVSASVGDRVTITCRASQGISSWLAWYQHKPGKAPKLLIYVASTLQSGVPSRFSGSGSGTDFTLTISSLQPEDFATYYCQQANSFPLTFGGGTKVEIK
B2: HuMab 132 (antibody, V domains shown)
VH: QVQLVQSGAEVKKPGASVKVSCKASGYTFTSYGISWVRQAPGQGLEWMGWISAYNGNSNYVQKFQGRVTMTTDTTTSTAYMELRSLTSDDTAVYYCAREYSYDSGTYFYYGMDVWGQGTTVTVSS
VL: EIVLTQSPATLSLSPGERATLSCRASQSVSSYLAWYQQKPGQAPRLLIYDASNRATGIPARFSGSGSGTDFTLTISSLEPEDFAVYYCQQRSNWPMYTFGQGTKLEIK
B3: HuMab 169 (antibody, V domains shown)
VH: QVQLVQSGAEVKKPGASVKVSCKASGYTFTNYGISWVRQAPGQGLEWMGWLSAYSGNTIYAQKLQGRVTMTTDTSTTTAYMELRSLRSDDTAVYYCARDRIVVRPDYFDYWGQGTLVTVSS
VL: EIVLTQSPATLSLSPGERATLSCRASQSVSSYLAWYQQKPGQAPRLLIYDASNRATGIPARFSGSGSGTDFTLTISSLEPEDFAVYYCQQRSNWPRTFGQGTKVEIK
B4: HuMab 098 (antibody, V domains shown)
VH: EVQLLESGGGLVQPGGSLRLSCAASGFTFSNYGMSWVRQAPGKGLEWVSAISGSAYSTYYADSVKGRFTISRDNSKNTLWLQMNSLRAEDTAVYYCAKAHYHGSGSYYTLFDYWGQGTLVTVSS
VL: DIQMTQSPSSLSASVGDRVTITCRASQGISSWLAWYQQKPEKAPKSLIYAASSLQSGVPSRFSGSGSGTDFTLTISSLQPEDFATYYCQQYNSYPYTFGQGTKLEIK
B5: HuMab 153 (antibody, V domains shown)
VH: QVQLVESGGGVVQPGRSLRLSCAASGFTFSDYVIHWVRQAPGKGLEWVTVISYDGSNKYYADSVKGRFTISRDNSKNTLYLQMNSLSAEDTAMYYCARGGITGTTGVFDYWGQGTLVTVSS
VL: B4 VL with A50D, S67Y, T72S, T85I, N92K, Y96I, K103R
B6: HuMab 050 (antibody, V domains shown)
VH: EVQLLESGGGLVQPGGSLRLSCAASGFTFSSYAMNWVRQAPGKGLEWVSAISGRGGTTYYADSVKGRFTISRDNSKNTLYLQMSSLRAEDTAVYYCAKARANWDYFDYWGQGTLVTVSS
VL: B1 VL with V50A, T53I, L96I, G100Q, K103R, V104L
B7: HuMab 025 (antibody, V domains shown)
VH: QVQLQQWGAGLLKPSETLSLTCAVYGGSFSDYYWNWIRQPPGKGLEWIGEIHHSGSTNYNPSLKSRVTISVDTSKNQFSLKLSSVTAADTAVYYCARGYYDSGVYYFDYWAQGTLVTVSS
VL: B4 VL with S31R, Q55R, Y96I, K103R
B8: HuMab 159 (antibody, V domains shown)
VH: EVQLVQSGAEVKKPGESLKISCKGSGYNFTSYWIGWVRQMPGKGLEWMGIIYPGDSDTRYSPSFQGQVTISADKSISTAYLQWSSLKASDTAMYYCARWGTYYDILTGYFNWFDPWGQGTLVTVSS
VL: B4 VL with N92Y, S93I, Y96W, L104V
B9: HuMab 129 (antibody, V domains shown)
VH: QVQLVESGGGVVQPGRSLRLSCAASGFTFSTFAIHWVRQAPGKGLEWVAVISYDGGHKFYADSVKGRFTISRDNSKNTLYLQMNSLRAEDTAMYYCARGLGVWGAFDYWGQGTLVTVSS
VL: EIVLTQSPATLSLSPGERATLSCRASQSVSSYLAWYQQKPGQAPRLLIYDASNRATGIPARFSGSGSGTDFTLTISSLEPEDFAVYYCQQRSNWWTFGQGTKVEIK
B10: HuMab 127 (antibody, V domains shown)
VH: EVQLVQSGAEVKKPGESLTISCKGSGYSFSIYWIGWVRQMPGKGLEWMGIIFPGDSDIRYSPSFQGQVTISADKSISTAYLQWSSLKASDTAMYYCARQPGDWSPRHWYFDLWGRGTLVTVSS
VL: VIWMTQSPSLLSASTGDRVTISCRMSQGISSYLAWYQQKPGKAPELLIYAASTLQSGVPSRFSGSGSGTDFTLTISYLQSEDFATYYCQQYYSFPLTFGGGTKVEIK

Target: T1, human epidermal growth factor receptor 2 (HER2), membrane-bound on cells (human, UniProt P04626 23-1255)
Assay: FACS binding; A431 cells

Row | Binder | EC50 [µg/mL]
1 | B1 | 0.498
2 | B2 | 0.068
3 | B3 | 0.415
4 | B4 | 0.101
5 | B5 | 0.244
6 | B6 | 1.14
7 | B7 | 0.128
8 | B8 | 0.855
9 | B9 | 0.316
10 | B10 | 0.27

Target: T1, human epidermal growth factor receptor …
Assay: FACS binding; AU565 cells

Row | Binder | EC50 [µg/mL]
11 | B1 | 0.491
12 | B2 | 0.911
13 | B3 | 0.908
14 | B4 | 0.336
15 | B5 | 0.626
16 | B6 | 0.722
17 | B7 | 0.58
18 | B8 | 1.3
19 | B9 | 0.578
20 | B10 | 2.29
